Measured values from the supplement of paper PMC12042874.
± gives the uncertainty stated by the source.

Test: amyloid nucleation score (Sup35N fusion, yeast selection) (log enrichment); library NNK1; higher = more nucleation; inactive = no reads after selection
Summary of the method: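 DiMSum was used to calculate nucleation scores as log enrichment of output over input reads, centred on the mode score of non-aggregating sequences. Sequences with fewer than 100 input reads were not scored. Input and output came from Illumina sequencing of plasmid inserts in psi-negative yeast expressing peptides of 20 random codons fused to Sup35N, induced 24 hours with 100 μM copper sulfate and then grown 7 days at 30°C on medium lacking adenine and uracil.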

| Substance | amyloid nucleation score |
| --- | --- |
| CTARLIA | 0.13 ± 0.28 |
| CTDPFQDLTRELLLLVCIGL | -0.201 ± 0.65 |
| CTFKAWRLYSVNKDSRIVLK | -0.576 ± 1.1 |
| CTSLDFSNKVRCVMGQSVLL | -0.606 ± 0.97 |
| CVAGLVDGKRKNVIRKWFWN | 0.049 ± 0.44 |
| CVARIDCEWIKPLSLHCSCT | -0.499 ± 1.3 |
| CVFRSYQWWSSHLYFVNVCN | 0.667 ± 0.68 |
| CVFYASTYVIPYNCENNFTI | 0.952 ± 0.26 |
| CVFYCRR | 0.091 ± 1.1 |
| CVFYISINCYFIWVRLDWVY | inactive |
| CVKRLLPVYWWGESG | 0.123 ± 0.91 |
| CVMYSRGFYCADCVCNLMPC | 4.85 ± 0.053 |
| CVPPRVRCRFEL | 0.792 ± 0.46 |
| CVSATRV | 0.042 ± 0.48 |
| CVSPSVTNFAELVSIVISPS | 0.652 ± 0.66 |
| CVTLCSDVSYSTYNWLPFIR | 0.834 ± 0.44 |
| CVYGGIFYRTGYLYFEVYFY | 0.134 ± 0.31 |
| CWASRSSCSLLYVRVVMRHC | 0.371 ± 0.57 |
| CWDGRQIWVILVIVLIRINA | -0.466 ± 0.91 |
| CWKLETYTSTDSQVGQANLK | -1.28 ± 0.96 |
| CWPSRQF | 0.373 ± 0.94 |
| CWRSVCGLLATGNQYFFGNA | 4.88 ± 0.07 |
| CWVYFSNSSVILRR | 0.074 ± 0.84 |
| CYGFCNCQYSESSKLLFDAL | -1.11 ± 0.34 |
| CYSAVPIYDFKYRPAGYYIS | inactive |

| Substance | amyloid nucleation score |
| --- | --- |
| CYSGCYRLCRVIVASCRCRG | 0.015 ± 0.71 |
| CYSVIRREQNLNILV | 1.71 ± 0.53 |
| CYTHPVMSITLNSI | 2.36 ± 0.15 |
| DACCYDECVS | 0.782 ± 0.25 |
| DACIGWVRYRSILCCMVLVA | -0.005 ± 1.7 |
| DADDLSIGAVNRTC | -0.066 ± 0.5 |
| DAEFRHGAIIGLMVGGVVIA | 3.45 ± 0.22 |
| DARSNSVLYQRCSTSRGRSG | -0.615 ± 0.84 |
| DCCKLTDQQWDVIHAGIWGG | 1.55 ± 0.69 |
| DCDGVLSLCIMVHEIYRKVG | inactive |
| DCISRLWR | -0.83 ± 0.89 |
| DCPTYWFVAKFFANWVR | inactive |
| DEPLNTMRSYACWSSDSSHP | 0.139 ± 0.48 |
| DFFRFC | inactive |
| DFFRSANMYLGFASGGEGNG | 0.77 ± 0.52 |
| DFLIAVMEQSMAQFKGHSSD | 0.071 ± 1.2 |
| DFRWWYLFC | 1.11 ± 0.26 |
| DFYTVLEKYVM | -0.157 ± 0.7 |
| DGFCCGIYYILSEMTGHSRS | 1.41 ± 0.65 |
| DGHFVALSVLVCTMRC | 1.01 ± 0.65 |
| DGLICVPVKLYVNIGKTFTW | 0.847 ± 0.41 |
| DGLKWVDWPWGHYGEMMVEM | 1.01 ± 0.55 |
| DGRKG | 1.26 ± 0.66 |
| DGRVKAKVMMVRNGSLRNVL | 0.002 ± 0.4 |
| DGSGGPYIGILLWGLAKMSG | -0.488 ± 0.85 |

| Substance | amyloid nucleation score |
| --- | --- |
| DHHRFRGLL | 0.657 ± 0.62 |
| DHIEMFGKVGYYHNMILW | 0.762 ± 0.37 |
| DHNLWFDNAFMSLCCCMNMI | 3.42 ± 0.19 |
| DHPCTTWVLPSYGPEDPLPC | 0.175 ± 0.35 |
| DHVSLSDSRKKRSQIGIIHA | 0.978 ± 0.45 |
| DILCASPTLLAE | 0.161 ± 0.49 |
| DILQDFIGQPLRSN | 1.04 ± 0.6 |
| DINNCSSEGRTYPFVIELPP | 1.03 ± 0.76 |
| DINSYVAYLVYEGLVNGSDE | 0.252 ± 0.46 |
| DIPIDIWSYPQHGRFS | -0.814 ± 0.79 |
| DIRVIVRIYQSIINL | 3.15 ± 0.09 |
| DIVSVVVWLKQYLWFEQWNV | 0.644 ± 0.81 |
| DKERSGTKQYNSYG | -0.039 ± 0.73 |
| DKLVYLHWPIYNVSVLCCRG | 5.14 ± 0.095 |
| DKVLQLMYMGLDSGVLPSKD | -0.789 ± 1 |
| DLCATDMGGYKRGEGPEGAL | -0.267 ± 1.1 |
| DLFCFELVDHTLLLGWTTVQ | -0.564 ± 0.66 |
| DLGKVVNCYFLFYR | 1.51 ± 0.25 |
| DLKFHLLIWVCRIGSDKNVK | 0.071 ± 1.2 |
| DLPLTYMCSN | 0.359 ± 0.7 |
| DLRSPRNS | inactive |
| DLSWGSRHY | -0.899 ± 0.42 |
| DLVYC | -0.307 ± 0.52 |
| DMFVGKTRMRRGSVMLYFMG | 0.829 ± 0.52 |
| DMSIKFCEPDFLLRNEQHNL | 0.382 ± 0.3 |

| Substance | amyloid nucleation score |
| --- | --- |
| DMTAVYLFVTVYSYDLSC | 0.569 ± 0.14 |
| DNGGSAVQEDQVLAWSTGEQ | 0.874 ± 0.23 |
| DNKFYHKVTDRRFLIPIFQI | -0.331 ± 0.37 |
| DNLSIWGL | -0.629 ± 0.89 |
| DNMYIFEN | -0.352 ± 0.46 |
| DNRLMHIIDMWCRSYFSGHT | -0.063 ± 1.4 |
| DNSLFLYQRAR | -0.449 ± 0.82 |
| DPIRCMCVFMVHPCRCDID | 0.45 ± 1.1 |
| DPNFITMACQIADECAYCCH | inactive |
| DQVISNCRLNMGV | -0.369 ± 0.56 |
| DRATGISEAVEWHGRWVGKN | -0.534 ± 0.83 |
| DRCSY | -0.431 ± 0.39 |
| DRFGWF | -0.148 ± 0.32 |
| DRFLETICSEGSRPGSGN | 0.917 ± 0.21 |
| DRFQNYFCILCFPFYANVCE | 2.71 ± 0.12 |
| DRGDLAFSFSGQRTGGKEPR | -0.219 ± 0.51 |
| DRLVGWVVWLHVVFPRMYVL | 0.483 ± 0.72 |
| DRMLHKAI | -0.624 ± 1.5 |
| DRNLDEWGEASL | -0.145 ± 1.5 |
| DRREGF | -0.892 ± 0.32 |
| DRVSCNEEFQRKCIFTVIRR | 1.19 ± 0.63 |
| DSDLRLNLCELTFVPWRRSG | 2.86 ± 0.19 |
| DSLSGSICGFRLYALLFTLT | -0.113 ± 0.53 |
| DSQVL | 1.25 ± 0.56 |
| DSRLGLMWMYEPIIRDGKWF | 0.802 ± 0.9 |

| Substance | amyloid nucleation score |
| --- | --- |
| DSRPCGYSRITFVCKGCAPC | 0.53 ± 0.79 |
| DSRVKRY | inactive |
| DSSCADR | 0.674 ± 0.41 |
| DSSVLRMQRVDRTRAFTYHW | -0.68 ± 0.56 |
| DSWIQHGGCEFVLIVRRHFI | 0.714 ± 0.97 |
| DSWYRLLLARACNISHVRGR | -0.527 ± 0.48 |
| DSYWFRRLC | 0.22 ± 0.71 |
| DTKIDACIRNSLHGWSRMAR | 0.181 ± 0.38 |
| DTNIHRVEFLISFFGRELSQ | inactive |
| DTSGSYMLSYLWGYWQLRSA | 0.073 ± 0.56 |
| DTVSMLHQLVCW | 7.245 ± 0.053 |
| DTVYDFTMPAWYDYMFWTKW | inactive |
| DVDGEVRVLDFV | -0.24 ± 0.45 |
| DVIHDICHAVSIIGAWCRDR | -0.061 ± 0.3 |
| DVKCRLWIHAL | -0.066 ± 0.54 |
| DVLSSNVFRNWVMVRSYSRQ | 0.795 ± 0.52 |
| DVPGSRQVLVYFFNQIFDEM | 5.9 ± 0.088 |
| DVRGRHRCRFGSQQTKRQS | 0.586 ± 0.8 |
| DWRYPLAYPVFSIDSRMFD | -0.312 ± 0.46 |
| DWVELR | -0.101 ± 0.86 |
| DWVYITLNGLLW | -0.145 ± 0.46 |
| DYALYYGVASNRFFGLFRSP | 0.642 ± 0.31 |
| DYESKSNFPYTQVNAITW | -1.05 ± 1.2 |
| DYKFRDRL | 0.364 ± 0.32 |
| DYNLVSRYVEPSRLVGFLRI | -0.226 ± 0.73 |

| Substance | amyloid nucleation score |
| --- | --- |
| DYPCRRGDLRRG | 0.642 ± 0.95 |
| DYRADFNNFVFEERSSYISV | -0.236 ± 0.49 |
| DYSMFHTVLKVRVCNYFFVW | 2.37 ± 0.24 |
| DYVPYEKAHRARMYCPTHQG | 0.409 ± 0.35 |
| EAFYFRLRKLFDRNPGGEGT | 0.621 ± 0.32 |
| EALCHMWQYSGCP | 0.324 ± 0.66 |
| ECFDANIWFWSCPMVHYG | 0.904 ± 0.19 |
| ECGLGRSKEQSNGSWMCLHR | -0.464 ± 0.54 |
| ECYQKTGVCRK | -0.447 ± 0.89 |
| EDSGNVIGEYFWKF | -1.44 ± 1.9 |
| EDTSKVKICFSVIVYSMLNR | 8.161 ± 0.045 |
| EENLSSPWMPMVPIDTINWF | 1.67 ± 0.52 |
| EFERVRYLYCGRPVPSHILL | 0.005 ± 0.89 |
| EFGNVIRVCNLI | -0.289 ± 0.34 |
| EFIFFCFVLCYANVMLLWN | 0.601 ± 0.42 |
| EFRKEG | 1.02 ± 0.52 |
| EFRSSVDWNAFMKLLVCTKH | 0.021 ± 0.93 |
| EFSVFYMGFGVM | inactive |
| EFYVLISV | -1.23 ± 1.9 |
| EGITHVFIRDGVGSYLKAET | 1.33 ± 0.58 |
| EGLARCQCLCLTRVIYVESA | -0.403 ± 1.4 |
| EGLTNMWGGSYYNGLTFMGQ | -0.754 ± 0.54 |
| EGPQIKAAGKPY | -0.373 ± 0.32 |
| EGSPKICPRYST | 0.088 ± 0.6 |
| EGTLSMALTL | 0.849 ± 0.49 |

| Substance | amyloid nucleation score |
| --- | --- |
| EIAYVLICRHLLECIRA | inactive |
| EIIET | 0.534 ± 0.34 |
| EIIFVRLGANEHWSHNVYVS | -0.746 ± 1.2 |
| EIPLRAGWPPWCGSDICL | 0.639 ± 0.55 |
| EIVRLVSVSVWVG | 0.014 ± 0.69 |
| EIWPFMPRDHPMNALIYVSR | 1.34 ± 0.39 |
| EKLRIVHQRRGRVHFNSGAI | -0.482 ± 0.41 |
| EKNCRADATV | -1.96 ± 1.8 |
| ELAAMCSWAYSN | 0.097 ± 0.41 |
| ELERWLDQKGTLQLEDQTLV | -0.724 ± 2.4 |
| ELGKKYSLYSLVLAST | 0.107 ± 0.67 |
| ELLMERMRQLVFPPIIYRLN | 0.44 ± 0.62 |
| ELRCTTWSRSPSLQVALVDL | -0.499 ± 0.59 |
| ELRLSLYLRKRRQYFRFVLK | -0.516 ± 1.7 |
| ELSLKVFPTARIKRCMFEPM | 0.838 ± 0.45 |
| ELSVNMSRDLSVTGLVQGRR | 0.794 ± 0.36 |
| ELTCWSGDGGVGGILVNVWT | 0.565 ± 0.47 |
| EMAFSSINPRGHSIQGSASG | -0.282 ± 1.2 |
| EMEVLSVPSVLLVIVVR | -1.04 ± 0.66 |
| ENDVSQPVRLTVVTRWSWYT | 0.229 ± 0.53 |
| ENFLTNYFYSVVTVI | -1.51 ± 1.2 |
| ENIDVENQLVYLFKICFGSM | 3.09 ± 0.12 |
| ENRQIWCANGNVVGGTALGV | 0.734 ± 0.69 |
